In the supplement of paper PMC10567573:

B1: IKZF1 (parent)
chain: HIKLHSGEKPFKCHLCNYACRRRD
B2: C9orf25 (parent)
chain: LARKGSLKNGSMGSPVNQQPKKNN

Variants of: B1
Experiment: protein stability index of a GFP-peptide fusion (GPS, HEK-293T) (PSI 1-6); higher = more stable
Conditions: c terminus: a fixed tail appended
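Note: lentivirally expressed fusions sorted by FACS into six bins by GFP to DsRed ratio, PSI derived from sequencing read proportions per bin multiplied by bin number.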

Variant | protein stability index
K3L | 1.99
K3Y | 1.69
G7D | 2.25
G7E | 2.62
G7M | 1.78
G7H | 1.97
G7A | 2.2
G7L | 1.73
G7F | 2.21
G7V | 3.09
G7W | 2
G7S | 1.63
G7R | 2.08
G7Q | 2.16
G7T | 1.15
R21L | 1.59
R21Y | 1.58
R21H | 2.27
R21W | 1.49
R21G | 2.41
R21C | 1.78
R21F | 2.22
R21K | 2.19

Variant | protein stability index
R21V | 1.3
R21E | 2.27
R21Q | 1.15
S6H | 1.96
S6K | 1.82
S6F | 2.19
S6C | 1.51
S6W | 2.93
S6P | 2.02
S6L | 1.93
S6I | 2.38
S6Q | 1.88
F11E | 2.17
F11I | 1.46
F11Q | 2.41
F11H | 2.2
F11G | 2.06
F11L | 2.12
F11R | 1.74
F11Y | 1.52
F11V | 1.46
F11A | 2.75
F11N | 1.77

Variant | protein stability index
F11D | 2.15
I2R | 1.96
I2E | 1.78
I2N | 2.14
I2F | 2.27
I2G | 2.29
I2L | 2
I2Q | 2.32
I2H | 2.3
I2K | 1.86
K9F | 1.97
K9Q | 1.88
K9I | 2.23
K9T | 1.42
K9E | 2.02
K9Y | 1.58
K9V | 1.43
K9S | 2.17
K9H | 3.3
K9W | 1.26
K9G | 2.12
K9A | 2.11
K9D | 2.8

Variant | protein stability index
E8M | 1.63
E8K | 1.5
E8R | 1.33
E8G | 2.85
E8Q | 1.56
E8T | 1.59
E8C | 1.97
E8I | 1.74
E8L | 1.79
E8Y | 2.06
E8W | 2.28
R23S | 1.87
R23D | 2.18
R23I | 2
R23L | 1.44
R23G | 2.04
R23W | 2.21
R23P | 2.02
R23Y | 1.72
R23V | 2.4
R23C | 2.27
R23T | 1.48
R23N | 1.63

Variants of: B2
Experiment: as above
Conditions: c terminus: a fixed tail appended

Variant | protein stability index
M12V | 4.98
M12L | 4.44
S6R | 3.99
S6H | 4.43
S6G | 4.64
S6N | 4.69
S11A | 4.44
S11L | 4.19
K4S | 4.68
K4I | 3.71
K4L | 4.23
N9V | 4.42
N9L | 3.67
V16D | 4.85
V16R | 4.69
V16P | 4.89
V16K | 4.14
V16Y | 3.87
V16Q | 5
V16A | 4.69
Q19Y | 4.58
Q19N | 4.72
P20S | 4.34
G5D | 4.58
G5L | 3.55

Variant | protein stability index
G5K | 5.05
A2K | 4.13
A2L | 4.58
A2V | 4.07
A2I | 4.37
L1K | 4.76
L1P | 4.76
L1Q | 4.85
L1C | 4.32
R3G | 5.02
R3C | 4.85
R3E | 4.69
R3H | 4.85
R3I | 4.58
N17A | 4.25
N17L | 4.64
N17C | 4.53
N17Y | 4.27
N17P | 4.95
K8H | 4.7
K8I | 4.76
K8E | 4.29
K8N | 5.17
G10W | 3.89
G10L | 4.65

Variant | protein stability index
N23R | 4.18
N23A | 4.63
K21Y | 4
K21L | 4.25
K21S | 4.3
K21N | 4.65
P15N | 4.42
P15D | 5.45
P15K | 4.34
L7V | 3.39
L7Q | 5.04
K22Y | 3.81
K22I | 3.8
K22R | 4.37
K22M | 4.49
N24Q | 4.85
N24M | 4.02
N24V | 3.85
N24W | 3.88
G13I | 4.72
G13Q | 4.99
G13W | 3.66
G13Y | 4.44
G13D | 4.64
G13P | 4.33
